This data set concerns the molecule itself. Description: SDS-PAGE, immunoblot and MALDI-TOF of purified and depolymerized pili (self-assembly).

B1: PilA pilin subunit of Geobacter sulfurreducens (mature PilA, ca. 6.5-7 kDa band from octyl-glucoside-depolymerized pili) (other)
chain: FTLIELLIVVAIIGILAAIAIPQFSAYRVKAYNSAASSDLRNLKTALESAFADDQTYPPES
notes: Native protein from strain PCA, denatured on SDS-PAGE and blotted; also called nanowire pilin subunit; PilA band
As to B1, the binding result was “binds”.

The values above are taken from US20120053320A1 (BOARD OF TRUSTEES OF MICHIGAN STATE UNIVERSITY, published 2012).
